Source: patent US20240209095A1 (DEVELOPMENT CENTER FOR BIOTECHNOLOGY, published 2024)
Where a chain is given by its changes, count along the chain named. Values belong to the binder of their own block, whether it stands above or below them.

Key:
[1] = molecular target: T1, human PD-L1 expressed on cells (HCC827 cells; PD-L1 aAPC/CHO-K1 cells) (human, UniProt Q9NZQ7 19-290); test: cell-based or functional assay
[2] = molecular target: T1, human PD-L1 expressed on cells (HCC827 …); test: cell-based or functional assay; remark: listed apart in the source
[3] = molecular target: T2, human PD-L1 (coated on ELISA plate) (human, UniProt Q9NZQ7 19-238, limits assumed); test: ELISA, PD-L1 coated 0.1 µg/well, goat anti-mouse IgG-HRP
T2 construct: construct not described; also called CD274; B7 homolog 1
Method: Briefly, PD-L1 was coated on a 96-well ELISA plate (0.1 μg/well). After binding of anti-PD-L1 antibodies, a goat anti mouse IgG conjugated with horse radish peroxidase (HRP) was used as a second antibody and 3,3′,5,5′-Tetramethylbenzidine (TMB) was used as a substrate to assess the antibody-PD-L1 bindings. The OD405 was read to calculate the activities.

[4] = molecular target: T3, PDL1-hFc (UniProt Q9NZQ7 19-238); test: ELISA, PDL1-hFc coated 1 µg/ml, antibody supernatant at 300 ng/ml, anti-human Kappa HRP
T3 construct: Coated at 1 µg/ml in the ELISAs of the chimeric and humanized antibodies; construct not described
Method: The binding activity of humanized antibodies could be efficiently compared by all combination of heavy chains and light chains using mini scale antibody expression. The concentration of antibodies in culture supernatant was determent by anti-human IgG ELISA. For PDL1 ELISA, plates were coating with PDL1-hFc 1 μg/ml and blocked by 5% milk PBS. Assay antibodies were adjusted to 300 ng/ml, 100 μl/well. Anti-PDL1 signals were measured by secondary goat anti-human Kappa HRP IgG 1:4000 and color developed by TMB substrates (KPL). Optical absorption value was measured at OD450-655 nm by Bio-Rad ELISA reader.

[5] = molecular target: T1, human PD-L1 expressed on cells (HCC827 …); test: cell-based or functional assay; remark: listed apart in the source
[6] = molecular target: T3, PDL1-hFc; test: ELISA titration on PDL1-hFc, KD compared with parental 3C3 (FIG. 10)
Method: (§1) ELISA plates were coating with PDL1-hFc 1 ug/ml and blocked by 5% milk PBS, then add assay antibodies form 45 nM to 2.7×10⁻³ nM dilute (4× fold dilution). Assay will measured by add goat anti-human KAPPA HRP IgG 1:4000 and binding curve and KD was determined by GraphPad Prism software using One site-specific binding for none linear fit methods.

[7] = molecular target: T3, PDL1-hFc; test: ELISA titration on PDL1-hFc 1 ug/ml, 45 nM to 2.7×10^-3 nM, one site-specific binding fit
Method: as §1

T3 sequence (Q9NZQ7 19-238): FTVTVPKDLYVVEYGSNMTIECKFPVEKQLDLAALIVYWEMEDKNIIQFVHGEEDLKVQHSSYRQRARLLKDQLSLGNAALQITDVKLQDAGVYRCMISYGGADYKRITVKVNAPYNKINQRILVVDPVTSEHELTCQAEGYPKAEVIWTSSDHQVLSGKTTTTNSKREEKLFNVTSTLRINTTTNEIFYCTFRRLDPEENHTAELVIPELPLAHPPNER
T1 sequence (Q9NZQ7 19-290): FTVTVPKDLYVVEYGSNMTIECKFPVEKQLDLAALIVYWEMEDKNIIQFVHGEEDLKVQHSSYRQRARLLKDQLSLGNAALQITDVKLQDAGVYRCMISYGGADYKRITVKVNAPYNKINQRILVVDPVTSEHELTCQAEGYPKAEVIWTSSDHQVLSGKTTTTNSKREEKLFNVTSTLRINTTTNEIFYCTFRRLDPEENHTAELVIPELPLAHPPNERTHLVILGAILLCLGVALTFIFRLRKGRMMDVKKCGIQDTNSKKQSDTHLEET
T2 sequence (Q9NZQ7 19-238 limits assumed): as the sequence (Q9NZQ7 19-238) above

Luc repoter EC50 [1]: 620 pM
PD1/PD-L1 Blockade Reporter Assay EC50 [2]: 620 pM
Kd [3]: 43.5 pM
B1: mouse hybridoma anti-human PD-L1 antibody 1G8 (antibody, V domains shown)
VH: QVQLQESGPGLAKPSQTLSLTCSVTGYSITSDYWNWIRKFPGNKLEFMGYISYTGSTYYNPSLKSRISITRDTSKNQYYLQLNSVTTEDTATYYCARRGEWLSPFAYWGQGTLVTVSA
VL: DIVMSQSPSSLGVSVGEKITMSCKSSQSLLYSSNQKNSLAWYQQKPGQSPKLLIYWASTRESGVPDRFTGSGSGTDFTLTISSVKSEDLAVYYCQQYYTYPFTFGAGTNLELK
notes: Mouse monoclonal antibody from hybridoma, detected with goat anti-mouse IgG; also called mAb 1G8; mouse clone 1G8

OD450-650 nM, 300 ng/ml PDL1 binding [4]: 1.55 OD
B2: 3C3 heavy chain M / light chain Hu2 (antibody, V domains shown)
VH: B1 VH with Q1E, A12T, N35D, F47Y, K64R, N83S, T87S, T90S, E100G, A106V
VL: DIVMTQTPLSLSVTPGQPASISCKSRQSLLFSSNQKNSLAWYLQKPGQSPQLLIYWASTRESGVPDRFSGSGSGTDFTLKISRVEAEDVGVYYCQQYYTYPFTFGQGTKLEIK
notes: Human IgG, kappa, from pTCAED vectors; tested as culture supernatant

OD450-650 nM, 300 ng/ml PDL1 binding [4]: 1.85 OD
B3: 3C3 heavy chain M / light chain Hu (antibody, V domains shown)
VH: B1 VH with Q1E, A12T, N35D, F47Y, K64R, N83S, T87S, T90S, E100G, A106V
VL: DIQMTQSPSSLSASVGDRVTITCKSRQSLLFSSNQKNSLAWYQQKPGKAPKLLIYWASTRESGVPSRFSGSGSGTDFTLTISSLQPEDFATYYCQQYYTYPFTFGQGTKLEIK
notes: as for B2

OD450-650 nM, 300 ng/ml PDL1 binding [4]: 1.52 OD
B4: mouse-human chimera 3C3 MM (antibody, V domains shown)
VH: B1 VH with Q1E, A12T, N35D, F47Y, K64R, N83S, T87S, T90S, E100G, A106V
VL: B1 VL with I2T, K18R, I19V, M21L, S22T, S26R, Y31F, N109S
notes: Variable regions in human chimera antibody expression vectors pTCAED heavy and light; human IgG, kappa (detected with anti-human Kappa); also called 3C3 heavy chain M / light chain M; chimera PD-L1

Luc repoter EC50 [1]: 580 pM
PD1/PD-L1 Blockade Reporter Assay EC50 [2]: 582 pM
Kd [3]: 35.6 pM
B5: mouse hybridoma anti-human PD-L1 antibody 3C3 (antibody, V domains shown)
VH: B1 VH with Q1E, A12T, N35D, F47Y, K64R, N83S, T87S, T90S, E100G, A106V
VL: B1 VL with I2T, K18R, I19V, M21L, S22T, S26R, Y31F, N109S
notes: Mouse monoclonal antibody from hybridoma, detected with goat anti-mouse IgG; also called mAb 3C3; mouse clone 3C3

OD450-650 nM, 300 ng/ml PDL1 binding [4]: 1.58 OD
B7: 3C3 heavy chain M / light chain Hu0 (antibody, V domains shown)
VH: B1 VH with Q1E, A12T, N35D, F47Y, K64R, N83S, T87S, T90S, E100G, A106V
VL: DIVMTQSPDSLAVSLGERATINCKSRQSLLFSSNQKNSLAWYQQKPGQPPKLLIYWASTRESGVPDRFSGSGSGTDFTLTISSLQAEDVAVYYCQQYYTYPFTFGQGTKLEIK
notes: as for B2

3C3 humanized antibodies Blockade Reporter Assay EC50 [5]: 441 pM
fold affinity loss against parental mouse clone 3C3 [6]: < 2 fold
Kd [7]: 93.6 pM
OD450-650 nM, 300 ng/ml PDL1 binding [4]: 1.35 OD
B13: 3C3 humanized antibody HuB2Hu (antibody, V domains shown)
VH: EVQLQESGPGLVKPSQTLSLTCTVSGYSITSDYWDWIRKPPGKGLEYMGYISYTGSTYYNPSLRSRITISRDTSKNQYSLKLSSVTAADTAVYYCARRGGWLSPFVYWGQGTLVTVSS
VL: B3 VL
notes: Human IgG, kappa, from pTCAED vectors; also called 3C3-HuB2Hu; 3C3 HuB2Hu

3C3 humanized antibodies Blockade Reporter Assay EC50 [5]: 409 pM
fold affinity loss against parental mouse clone 3C3 [6]: < 2 fold
Kd [7]: 101 pM
OD450-650 nM, 300 ng/ml PDL1 binding [4]: 1.05 OD
B14: 3C3 humanized antibody HuB2Hu2 (antibody, V domains shown)
VH: B13 VH
VL: B2 VL
notes: Human IgG, kappa, from pTCAED vectors; also called 3C3-HuB2Hu2; 3C3 HuB2Hu2

OD450-650 nM, 300 ng/ml PDL1 binding [4]: 0.15 OD
B17: 3C3 humanized antibody HuHu0 (antibody, V domains shown)
VH: B13 VH with E1Q, K39Q, Y47W, M48I, I67V, R71V, Y78F
VL: B7 VL
notes: Human IgG, kappa, from pTCAED vectors; also called 3C3 heavy chain Hu / light chain Hu0

3C3 humanized antibodies Blockade Reporter Assay EC50 [5]: 477 pM
fold affinity loss against parental mouse clone 3C3 [6]: < 2 fold
Kd [7]: 108 pM
OD450-650 nM, 300 ng/ml PDL1 binding [4]: 1.13 OD
B20: 3C3 humanized antibody HuB2Hu0 (antibody, V domains shown)
VH: B13 VH
VL: B7 VL
notes: Human IgG, kappa, from pTCAED vectors; also called 3C3-HuB2Hu0; 3C3 HuB2Hu0

Further lines, the binder ahead of its results:

B6: 3C3 heavy chain Hu-B1 / light chain M (antibody, V domains shown)
VH: B13 VH with K39Q, Y47W
VL: B1 VL with I2T, K18R, I19V, M21L, S22T, S26R, Y31F, N109S
notes: as for B2
OD450-650 nM, 300 ng/ml PDL1 binding [4]: 0.61 OD

B8: 3C3 heavy chain Hu-B2 / light chain M (antibody, V domains shown)
VH: B13 VH
VL: B1 VL with I2T, K18R, I19V, M21L, S22T, S26R, Y31F, N109S
notes: as for B2
OD450-650 nM, 300 ng/ml PDL1 binding [4]: 1.2 OD

B9: 3C3 heavy chain Hu / light chain M (antibody, V domains shown)
VH: B13 VH with E1Q, K39Q, Y47W, M48I, I67V, R71V, Y78F
VL: B1 VL with I2T, K18R, I19V, M21L, S22T, S26R, Y31F, N109S
notes: as for B2
OD450-650 nM, 300 ng/ml PDL1 binding [4]: 0.25 OD

B10: 3C3 heavy chain Hu-B1 / light chain Hu0 (antibody, V domains shown)
VH: B13 VH with K39Q, Y47W
VL: B7 VL
notes: as for B2
OD450-650 nM, 300 ng/ml PDL1 binding [4]: 0.539 OD

B11: 3C3 heavy chain Hu-B1 / light chain Hu2 (antibody, V domains shown)
VH: B13 VH with K39Q, Y47W
VL: B2 VL
notes: as for B2
OD450-650 nM, 300 ng/ml PDL1 binding [4]: 0.349 OD

B12: 3C3 heavy chain Hu-B1 / light chain Hu (antibody, V domains shown)
VH: B13 VH with K39Q, Y47W
VL: B3 VL
notes: as for B2
OD450-650 nM, 300 ng/ml PDL1 binding [4]: 0.455 OD

B15: 1G8 humanized antibody HuB2Hu (antibody, V domains shown)
VH: B13 VH with D35N, R64K, G100E, V106A
VL: B3 VL with R26S, F31Y
notes: Human IgG, kappa, from pTCAED vectors; also called 1G8 HuB2Hu
Kd [7]: 248 pM

B16: 1G8 humanized antibody HuHu2 (antibody, V domains shown)
VH: QVQLQESGPGLVKPSQTLSLTCTVSGYSITSDYWNWIRQPPGKGLEWIGYISYTGSTYYNPSLKSRVTISVDTSKNQFSLKLSSVTAADTAVYYCARRGEWLSPFAYWGQGTLVTVSS
VL: B2 VL with R26S, F31Y
notes: Human IgG, kappa, from pTCAED vectors; also called 1G8 HuHu2
Kd [7]: 9680 pM

B18: 1G8 humanized antibody HuB2Hu0 (antibody, V domains shown)
VH: B13 VH with D35N, R64K, G100E, V106A
VL: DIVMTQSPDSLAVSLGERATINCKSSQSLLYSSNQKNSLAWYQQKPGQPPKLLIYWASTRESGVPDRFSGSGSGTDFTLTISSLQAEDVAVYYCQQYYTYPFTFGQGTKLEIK
notes: Human IgG, kappa, from pTCAED vectors; also called 1G8 HuB2Hu0
Kd [7]: 238 pM

B19: 1G8 humanized antibody HuHu0 (antibody, V domains shown)
VH: B16 VH
VL: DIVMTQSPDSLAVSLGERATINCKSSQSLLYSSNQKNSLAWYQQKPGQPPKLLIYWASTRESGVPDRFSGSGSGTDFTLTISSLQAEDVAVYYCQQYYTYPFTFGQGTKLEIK
notes: Human IgG, kappa, from pTCAED vectors; also called 1G8 HuHu0
Kd [7]: 3990 pM

B21: 1G8 humanized antibody HuB2Hu2 (antibody, V domains shown)
VH: B13 VH with D35N, R64K, G100E, V106A
VL: B2 VL with R26S, F31Y
notes: Human IgG, kappa, from pTCAED vectors; also called 1G8 HuB2Hu2
Kd [7]: 108 pM

B22: 1G8 humanized antibody HuHu (antibody, V domains shown)
VH: B16 VH
VL: B3 VL with R26S, F31Y
notes: Human IgG, kappa, from pTCAED vectors; also called 1G8 HuHu
Kd [7]: 3240 pM
